Measured values taken from patent US20220273573A1, “SOLID DISPERSION GENISTEIN COMPOSITIONS AND METHODS OF MAKING AND USING THE SAME” (priority 2020, published 2022).

System: mice exposed to bilateral whole-body irradiation
Assay: Prophylactic efficacy, 180-day survival after whole-body irradiation
Assay type: in vivo
Details: single subcutaneous injection 0.3 mg/kg 24 hours after 9.2 Gy whole-body irradiation
Description: In another study, selected samples of Example 3 were each orally administered at 200 mg Genistein/kg twice per day to groups of mice for 6 consecutive days. A separate vehicle control and genistein group was included for each sample formulation. The mice were then exposed to bilateral whole-body irradiation at a dose of 9.2 Gy at 0.6 Gy/min and the 180-day survival rate was observed. As additional controls, an injectable suspension (200 mg Genistein/kg) and corresponding vehicle were also administered to groups of mice via intramuscular injection 24 hours prior to exposure to bilateral whole-body irradiation at a dose of 9.2 Gy at 0.6 Gy/min. A separate group of mice was also administered a single subcutaneous injection of Neulasta® (0.3 mg/kg), an FDA-approved radiation treatment drug, 24 hours after exposure to bilateral whole-body irradiation at a dose of 9.2 Gy at 0.6 Gy/min. The results of this study are shown in Table 5 as percentage of surviving animals, and the number of surviving animals compared to the total number of animals in the study and depicted in FIG. 3.

B1: Neulasta ®: an FDA-approved radiation treatment drug, single subcutaneous injection (protein, UniProt P09919 31-207, looked up)
Granulocyte …: TPLGPASSLPQSFLLKCLEQVRKIQGDGAALQEKLVSECATYKLCHPEELVLLGHSLGIPWAPLSSCPSQALQLAGCLSQLHSGLFLYQGLLQALEGISPELGPTLDTLQLDVADFATTIWQQMEELGMAPALQPTQGAMPAFASAFQRRAGGVLVASHLQSFLEVSYRVLRHLAQP
modifications: pegfilgrastim; PEG, N-terminal Met
notes: an FDA-approved radiation treatment drug, single subcutaneous injection
- 180-Day Survival: 56% (9/16)
